Assay results taken from paper doi:10.1101/2021.07.05.451159.

How the values were obtained:
GST = assay: SEC
[1] = target: Gp22 (ALY06965.1), receptor-binding protein of C. difficile phage CDHS-1 (Clostridium difficile phage CDHS-1); assay: SEC

Substance	stoichiometry N (GST)	stoichiometry N [1]
GST (natural protein)	2	
Gp22 (ALY06965.1), receptor-binding protein of C. difficile phage CDHS-1 (natural protein)		2
